Measured values: patent US20250320468A1, “New Microbial Diamine Oxidase Derived from Yarrowia Lipolytica for the Degradation of Biogenic Amines” (UNIVERSITÄT HOHENHEIM, priority 2021, published 2025)
“Also recorded” adds a separate entry of the source. Where two headings read alike, the source gives them in different places.

What was measured:
[1] = biological target: T1, Yarrowia lipolytica PO1f diamine oxidase-1 (DAO-1), wild type, SEQ ID NO: 1 (Yarrowia lipolytica, UniProt Q6CGT2); experiment: Michaelis-Menten kinetics of DAO-1 with histamine, DA-67 assay in PIPES buffer; type: biochemical; settings: PIPES buffer (25 mM; pH 7.2), 37° C.
T1 sequence (Q6CGT2 1-671): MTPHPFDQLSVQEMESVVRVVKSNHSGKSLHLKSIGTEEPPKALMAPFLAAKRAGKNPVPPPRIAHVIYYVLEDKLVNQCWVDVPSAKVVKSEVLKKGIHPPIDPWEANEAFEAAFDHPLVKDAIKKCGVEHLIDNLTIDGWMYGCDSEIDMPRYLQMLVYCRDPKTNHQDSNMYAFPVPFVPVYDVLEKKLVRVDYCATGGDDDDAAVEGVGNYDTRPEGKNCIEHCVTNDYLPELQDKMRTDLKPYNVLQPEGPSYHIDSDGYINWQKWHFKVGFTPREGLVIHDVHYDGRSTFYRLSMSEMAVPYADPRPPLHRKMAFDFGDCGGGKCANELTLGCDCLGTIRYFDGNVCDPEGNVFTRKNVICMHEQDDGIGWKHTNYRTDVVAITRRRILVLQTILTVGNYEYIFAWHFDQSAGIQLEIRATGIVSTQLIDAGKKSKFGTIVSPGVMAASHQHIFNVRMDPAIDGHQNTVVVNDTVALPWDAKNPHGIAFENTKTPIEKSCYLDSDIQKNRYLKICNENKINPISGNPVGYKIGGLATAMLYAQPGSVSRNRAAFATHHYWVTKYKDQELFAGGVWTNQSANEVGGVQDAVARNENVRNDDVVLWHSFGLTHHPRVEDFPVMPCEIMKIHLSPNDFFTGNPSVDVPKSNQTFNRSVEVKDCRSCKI
Method: DAO-1 activity determined with the DA-67 assay in PIPES buffer (25 mM; pH 7.2) at 37° C.
The DAO activity was determined using the colorimetric DA-67 enzyme assay, as known in the art. […] Subsequently, 24 μL (266 units/mL) of horseradish peroxidase (Grade I) were added. The reaction was started by the addition of 50 μL enzyme solution and incubated at 37° C. for 10 min and stirred at 750 rpm. The reaction was stopped by the addition of 50 μL sodium diethyldithiocarbamate (30 mM). After centrifugation (10,000 g for 3 min at 20° C.), the absorption was measured at 668 nm. […] Hydrogen peroxide (0.5 to 10 nmol/mL) was used for the calibration. The enzyme activity was calculated in nkat, whereby 1 nkat converts 1 nmol substrate/s at 37° C.
Kinetic investigations were done within the initial reaction velocity.
Data are presented as mean values with standard deviation. Enzyme kinetics were evaluated by nonlinear regression using the data analyzing software Sigmaplot 12.5 (Systat Software GmbH, Erkrath, Germany).

[2] = biological target: T1, Yarrowia lipolytica PO1f diamine oxidase-1 (DAO-1), wild type, SEQ ID NO: 1
Method: DAO-1 activity was determined with the DA-67 assay.
The DAO-1 activity was determined using a colorimetric DA-67 enzyme assay. […] Subsequently, 12 μL (266 units/mL) of horseradish peroxidase (Grade I) were added. The reaction was started by the addition of 25 μL DAO solution and incubated at 37° C. for 10 min and stirred at 750 rpm. The reaction was stopped by the addition of 50 μL sodium diethyldithiocarbamate (30 mM). After centrifugation (10,000 g for 3 min at 20° C.), the absorption was measured at 668 nm. […] Hydrogen peroxide (0.5 to 10 nmol/mL) was used for the calibration. The enzyme activity was calculated in nkat, whereby 1 nkat converts 1 nmol substrate/s at 37° C.
The DAO-1 activity was determined using the DA-67 assay. For unhydrolyzed conditions, the DA-67 reagent (50 μM) was prepared in SIF containing BSA, WPI, sodium-caseinate each at 35.6 g/L and 106.8 g/L sucrose (pH 6.8). […] The DAO-1 was desalted against SIF using PD MidiTrap G-25 columns.
For the hydrolyzed conditions, BSA, WPI, sodium-caseinate each at 16.67 g/L and 50 g/L sucrose were first incubated in SIF (with pancreatin) at 37° C. and 130 rpm for 90 min. […]
All experiments were done at least in duplicate and evaluated by determining the standard deviation with Excel. […] Enzyme kinetics were evaluated by nonlinear regression using the data analyzing software Sigmaplot 12.5 (Systat Software GmbH, Erkrath, Germany).

[3] = test system: porcine kidney diamine oxidase (DAO); settings: cited from earlier work
[4] = test system: human diamine oxidase (DAO); settings: cited from earlier work
[5] = test system: Aspergillus niger amine oxidase; settings: cited from earlier work
[6] = test system: Arthrobacter crystallopoietes KAIT-B-007 histamine oxidase; settings: cited from earlier work
[7] = DAO activity of Y. lipolytica PO1f_axp_dao-2 cell extract versus wildtype extract, agmatine; type: biochemical
Method: (§1) The DAO activity was determined using the colorimetric DA-67 enzyme assay, as known in the art.
(§2) Y. lipolytica PO1f was identified as the owner of two putative DAOs using the BLAST program (https://blast.ncbi.nlm.nih.gov). […] Both genes were amplified from the genome of the Y. lipolytica strain PO1f and successfully integrated into the axp locus of the genome (integration efficiency of around 20%), resulting in the recombinant strains Y. lipolytica PO1f_axp_dao-1 and Y. lipolytica PO1f_axp_dao-2. The genes were integrated into the axp locus because it allowed efficient expression of the proteins desired with the chosen strategy for homologous recombinant integration, as known in the art. Gene expression was thereby conducted using the strong, constitutive promoter UAS1B8_TEF (136).

[8] = DAO activity of Y. lipolytica PO1f_axp_dao-2 cell extract versus wildtype extract; type: biochemical
Method: as §1, §2

[9] = simulated intestinal fluid; cited from earlier work
[10] = extracted and partially purified from pig kidney (heat treatment, salt precipitation, HIC), cited from earlier work
[11] = cited from earlier work; for in vitro reduction of histamine: 150 mg/L (75 mg) histamine, 50 nkat (0.1 nkat/mL), 5 h
[12] = cited from earlier work
[13] = substrates at 1 mM; cited from earlier work
[14] = kinetic studies from the art; cited from earlier work
[15] = read-out: Ki (substrate inhibition by histamine)

## NCCc1c[nH]cn1 [histamine]
[1]
  substrate inhibition recognized for histamine concentrations: greater than 12.5 mM
[2]; hydrolyzed food-matrix SIF 3
  substrate inhibition recognized for histamine concentrations: greater than 12.5 mM
[2]; unhydrolyzed food-matrix SIF 3
  substrate inhibition recognized for histamine concentrations: greater than 12.5 mM
[3]
  Km: 27 µM
[3]; porcine kidney DAO, 56 mg/L (0.5 mM)
  substrate inhibition by histamine concentrations: > 0.5 mM
[3]; [15]
  Ki: 5.71 mM
[4]
  Km: 2800 nM
[4]; [15]
  Ki: 280 µM
[5]
  Km: 600 µM
[6]
  Km: 500 µM

B1: DAO-2: second putative DAO from Y. lipolytica PO1f (Uniprot: A0A371BXN9), gene dao-2 SEQ ID NO: 3 (protein, listed as Yarrowia lipolytica)
chain: MHRLSQLATQTTAATITAGHPLDPLSPSEIEHAASIVKSQMRDSSPYRFNLITLIEPPKAELLAWEASPSSVAKPPRRAEVVLVVRGKKGVTEGRVCLTGSKVLSWSEIEGVQPILTVDDLQKVEEIVRQDPEVIKQCKLIGVDNMSQVYCDPWTIGYDERWGAERRLQQAFLYFRAHQDDSQYSHPLDFTPIYDATEQKVIFIDIPPVRRPLSKLKNSNFNPQDISKTTGYRDVKPIDVSQPEGVNFKMTGRIMEWQGFRFHVGFNYREGIVLSQISFNDHGNQRNMFHRLSLVEMVVPYGNPEHPHQRKHAFDLGEYGAGLMTNPLSLGCDCKGVIHYLDAHFSDAEGKPLTVPNAVCIHEEDNGLLFKHSDFRDEFQTSIVTRATKLILSQIFTAANYEYCVYWIFHQDGTIQLEIKLTGILNTFPCNPGEDLHGWGTEVYPGTNAHNHQHLFSLRIHPAIDSQLHPGNSVAMVDAERSPFPPGHPENLHGNGFRPKRTVFNNPIEAMTDYDGNTSRTWDFFNPKSINQYSKKPASYKLVSRECPPLLPQPGGLVWNRAGFARHHMHVVPYVDGQLYPAGRFVCQTSGKPSRGLPEWIEQCGEKANINDTDVVAYHTFGLTHFPAPEDFPLMPAEPMTLLLRPRNFFLQNPALDVPPSHARTTTEAQAASGAKVVSLTDKVSQLAFNKSCCSK
[7]; cell extract, shaking flask
  activity with agmatine: around 50 nkatAgmatine (14.5 mM)/LCulture
[7]; substrate agmatine
  increase in activity versus wildtype cell extract: 5.5 fold
[8]; recombinant Y. lipolytica PO1f_axp_dao-2 extract
  enzyme activity towards histamine: no activity; also recorded: did not show enzyme activity
[8]; substrates histamine, putrescine, cadaverine, tyramine, spermidine, tryptamine
  increase in DAO-activity versus wildtype cell extract: did not show an increase

B2: porcine DAO: DAO extracted from porcine kidney (Uniprot: Q9TRC7), prior-art comparator (protein, UniProt Q9TRC7 25-755, looked up)
Diamine oxidase …: ERSPRTPGGKAGVFADLSAQELKAVHSFLWSQKELKLEPSGTLTMAKNSVFLIEMLLPKKQHVLKFLDKGHRRPVREARAVIFFGAQEQPNVTEFAVGPLPTPRYMRDLPPRPGHQVSWASRPISKAEYALLSHKLQEATQPLRQFFRRTTGSSFGDCHEQCLTFTDVAPRGLASGQRRTWFILQRQMPGYFLHPTGLELLVDHGSTNAQDWTVEQVWYNGKFYRSPEELAQKYNDGEVDVVILEDPLAKGKDGESLPEPALFSFYQPRGDFAVTMHGPHVVQPQGPRYSLEGNRVMYGGWSFAFRLRSSSGLQILDVHFGGERIAYEVSVQEAVALYGGHTPAGMQTKYIDVGWGLGSVTHELAPDIDCPETATFLDALHHYDADGPVLYPRALCLFEMPTGVPLRRHFNSNFSGGFNFYAGLKGQVLVLRTTSTVYNYDYIWDFIFYPNGVMEAKMHATGYVHATFYTPEGLRYGTRLHTHLIGNMHTHLVNYRVDLDVAGTTNSFQTLQMELENITNPWSPRHRLVQPTLKQTRYSRERQAAFRFGQPLPKYLLITSPKENPWGHTRSYRLQLHSMADQVLPPGWQEERAVTWARYPLAVTRYRESELSSSSIYNQNDPWDPPVVFEEFLRNNENIEDEDLVAWVTVGFLHIPHSEDIPNTATPGNSVGFLLRPFNFFPEDPALASRDLVVVWPLENGSTYAQRWIPEEDQSCLKPPPFSYNGSYRPV
[9]
  half-life: approximately 19 minutes
[10]
  specific DAO activity: 81 nkat/gProtein
[10]; listed as DAO from porcine kidney
  specific DAO activity: 81±1 nkat/gProtein
[11]
  in vitro reduction of histamine: Around 90%
[11]; listed as free porcine DAO
  in vitro reduction of histamine: about 90%
[11]; within 5 h under in vitro conditions, about 90% reduction
  DAO activity required for the degradation of food-relevant histamine (75 mg): 50 nkat
[12]; cadaverine as substrate, potassium phosphate buffer
  pH of maximal DAO activity: 7.4
[12]; histamine as substrate, potassium phosphate buffer
  pH of maximal DAO activity: 6.3
[13]
  DAO activity with histamine compared to the maximal measured activity with putrescine: 19%
[14]
  histamine concentration above which substrate inhibition occurs: greater than 56 mg/L

B3: human DAO: human diamine oxidase (Uniprot: P19801), prior-art comparator (protein, UniProt P19801 20-751, looked up)
Diamine oxidase …: EPSPGTLPRKAGVFSDLSNQELKAVHSFLWSKKELRLQPSSTTTMAKNTVFLIEMLLPKKYHVLRFLDKGERHPVREARAVIFFGDQEHPNVTEFAVGPLPGPCYMRALSPRPGYQSSWASRPISTAEYALLYHTLQEATKPLHQFFLNTTGFSFQDCHDRCLAFTDVAPRGVASGQRRSWLIIQRYVEGYFLHPTGLELLVDHGSTDAGHWAVEQVWYNGKFYGSPEELARKYADGEVDVVVLEDPLPGGKGHDSTEEPPLFSSHKPRGDFPSPIHVSGPRLVQPHGPRFRLEGNAVLYGGWSFAFRLRSSSGLQVLNVHFGGERIAYEVSVQEAVALYGGHTPAGMQTKYLDVGWGLGSVTHELAPGIDCPETATFLDTFHYYDADDPVHYPRALCLFEMPTGVPLRRHFNSNFKGGFNFYAGLKGQVLVLRTTSTVYNYDYIWDFIFYPNGVMEAKMHATGYVHATFYTPEGLRHGTRLHTHLIGNIHTHLVHYRVDLDVAGTKNSFQTLQMKLENITNPWSPRHRVVQPTLEQTQYSWERQAAFRFKRKLPKYLLFTSPQENPWGHKRTYRLQIHSMADQVLPPGWQEEQAITWARYPLAVTKYRESELCSSSIYHQNDPWHPPVVFEQFLHNNENIENEDLVAWVTVGFLHIPHSEDIPNTATPGNSVGFLLRPFNFFPEDPSLASRDTVIVWPRDNGPNYVQRWIPEDRDCSMPPPFSYNGTYRPV
[12]; putrescine as substrate, phosphate buffer, DAO from blood serum
  pH of maximal DAO activity: 7.5
